6 molecules from US20100322948A1, “Bone morphogenetic protein (BMP)-binding domains of proteins of the repulsive guidance molecule (RGM) protein family and functional fragments thereof, and use of same” (ABBOTT GMBH & CO. KG, priority 2007, published 2010) can be followed below.

To fix the notation:
B2: 47-168-Fc (#786) (Fc fusion)
chain: PCKILKCNSEFWSATSGSHAPASDDTPEFCAALRSYALCTRRTARTCRGDLAYHSAVHGIEDLMSQHNCSKDGPTSQPRLRTLPPAGDSQERSDSPEICHYEKSFHKHSATPNYTHCGLFGD
notes: Expressed in HEK293F cells; IgK leader left out; also called fragment 0; not shown: Factor Xa site from the vector; human IgG Fc (hIgG lambda hc 257-Stop)
B6: Recombinant human BMP-4 (ligand, UniProt P12644 293-408, looked up)
chain: SPKHHSQRARKKNKNCRRHSLYVDFSDVGWNDWIVAPPGYQAFYCHGDCPFPLADHLNSTNHAIVQTLVNSVNSSIPKACCVPTELSAISMLYLDEYDKVVLKNYQEMVVEGCGCR
notes: Bought protein; also called hBMP-4

In test [1] the target is B6. As to the kind of experiment: ELISA, 218-284-Fc immobilised, BMP-4 titrated, detection with anti-BMP-4 biotin antibody. As for the experimental part:
(§1) The test was conducted according to test method 4, variant B above, with immobilization of the fusion proteins (1 mg/mL).

In test [2] the target is B6. As to the kind of experiment: ELISA, BMP-4 coated at 2.5 µg/mL, fragment #786-Fc from 0.5 µg/mL in 1:2 dilutions (triple values), detection anti-human Fc biotin 1:200 and Strep POD 1:5000. The text has this:
The binding of the fusion proteins was detected using anti-human-antibodies.
In general terms: In an ELISA, binding on a coated surface is turned into a signal by an enzyme label.

Test [3] deals with B2. Kind of test: ELISA, 47-168-Fc immobilised, BMP-2 titrated, detection with anti-BMP-2 biotin antibody. As for the experimental part:
as §1

In another test the target is T1, BMP-4 (Homo sapiens, UniProt P12644).
T1 construct: purchased R&D Systems 314-BM
T1 sequence (P12644 293-408): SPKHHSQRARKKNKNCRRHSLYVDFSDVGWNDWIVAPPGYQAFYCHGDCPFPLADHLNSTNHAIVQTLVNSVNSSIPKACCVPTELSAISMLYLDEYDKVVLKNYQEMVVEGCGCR
Kind of test: In vitro interaction test, variant B: immobilized RGMA-Fc fusion proteins, detection of BMP-4 binding. As for the experimental part: (§2) Test Method 4: In Vitro Interaction Test for Determining the Interaction between RGMA and BMP-2 and -4
(§3) The interaction tests were carried out as described below:
(§4) Variant B: Immobilization of Various RGMA-Fc Fusion Proteins and Detection of the Binding of the BMP-2/ or -4 Protein
(§5) Immunoplate Cert. MaxiSorp F96 (Nunc, 439454)
(§6) RGMA-Fc fragments • Volume used: 2.5 μg/mL in Na2CO3; addition: 50 μL per well • 1 hour at 37° C. in damp chamber
(§7) 3. Washing step: • Wash 3× with PBS/0.02% Tween 20
(§8) 4. Blocking: • 3% BSA in PBS/0.02% Tween, 1 hour at 37° C. in damp chamber • Addition : 200 μL per well, incubation: 1 hour at 37° C. in damp chamber
(§9) Recombinant human BMP-2, Catalog No.: 355-BM, Company: R&D Systems; or
(§10) Recombinant human RGM A, R&D Systems; Prod. #2495-RM,
(§11) recombinant human BMP-4, Catalog No.: 314-BM, Company: R&D Systems;
(§12) Concentration in each case: 10 μg/mL
(§13) Dilution steps: in each case 1:2 with PBS/0.02% Tween 20
(§14) 6. Washing step: • Wash 3× with PBS/0.02% Tween 20
(§15) Anti-human BMP-4 biotin antibody; Catalog No.: BAM7572, 1:200 in 1% BSA-PBS-T
(§16) 8. Washing step: • Wash 3× with PBS/0.02% Tween 20
10. Washing step: • Wash 3× with PBS/0.02% Tween 20
ImmunoPure TMB substrate kit; (Pierce, #34021) • Development period: approximately 1-30 minutes • 1:1 mixture of […]; addition: 50 μL per well
12. Stop: • 2.5 M H2SO4; addition: 50 μL per well
The test was conducted according to test method 4, variant B above, with immobilization of the fusion proteins (1 mg/mL). The binding of BMP-4 was detected using anti-BMP-4 biotin antibodies.
(§17) The test was conducted according to test method 4, variant B above, with immobilization of the fusion proteins (1 mg/mL). The binding of BMP-4 and -2 was detected using anti-BMP-4 and anti-BMP-2 biotin antibodies, respectively.

Another test addresses T2, BMP-2 (Homo sapiens, UniProt P12643).
T2 construct: purchased R&D Systems 355-BM; host or cells: CHO cells (said of #355-BM in the BRE-Luc section)
T2 sequence (P12643 283-396): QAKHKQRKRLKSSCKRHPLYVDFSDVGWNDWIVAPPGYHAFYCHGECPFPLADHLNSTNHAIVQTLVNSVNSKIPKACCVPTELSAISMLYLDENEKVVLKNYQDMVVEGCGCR
As to the kind of experiment: In vitro interaction test, variant B: immobilized RGMA-Fc fusion proteins, detection of BMP-2 binding. As to conditions: Working Example 2, FIG. 4, anti-BMP-2 biotin antibodies. How it is done:
as §2, §3, §4, §5, §6, §7, §8, §9, §10, §11, §12, §13, §14, §15, §16
10. Washing step: • Wash 3× with PBS/0.02% Tween 20 […]
as §17

Test [4] addresses B6. Kind of test: ELISA, 266-335-Fc immobilised, BMP-4 titrated, detection with anti-BMP-4 biotin antibody. How it is done: as §1
The target of test [5] is B2. Kind of test: ELISA, 47-168-Fc immobilised, BMP-4 titrated, detection with anti-BMP-4 biotin antibody. As for the experimental part: as §1

B1: Fragment 2 (Fc fusion)
RGM A fragment fused to Fc: IIFKNFQECVDQKVYQAEMDELPAAFVDGSKNGGDKHGANSLKITEKVSGQHVEIQAKYIGTTIVVR
notes: also called 218-284-Fc
As for B1, in the test with Recombinant human BMP-4 [1], the binding result is “no binding”.
B2: in the test with Recombinant human BMP-4 [2], the “EC50 (read off the curve)” value is roughly 5 ng/mL.

B3: Recombinant human BMP-2 (ligand, UniProt P12643 283-396, looked up)
chain: QAKHKQRKRLKSSCKRHPLYVDFSDVGWNDWIVAPPGYHAFYCHGECPFPLADHLNSTNHAIVQTLVNSVNSKIPKACCVPTELSAISMLYLDENEKVVLKNYQDMVVEGCGCR
notes: Bought protein; also called rhBMP-2; recombinant h BMP-2
On to B3, for which the binding result with 47-168-Fc (#786) [3] is “binds”.

B4: RGMA-Fc: RGM A Fc fusion protein used as comparison for the fragments (protein)
chain: PCKILKCNSEFWSATSGSHAPASDDTPEFCAALRSYALCTRRTARTCRGDLAYHSAVHGIEDLMSQHNCSKDGPTSQPRLRTLPPAGDSQERSDSPEICHYEKSFHKHSATPNYTHCGLFGDPHLRTFTDRFQTCKVQGAWPLIDNNYLNVQATNTPVLPGSAATATSKLTIIFKNFQECVDQKVYQAEMDELPAAFVDGSKNGGDKHGANSLKITEKVSGQHVEIQAKYIGTTIVVRQVGRYLTFAVRMPEEVVNAVEDWDSQGLYLCLRGCPLNQQIDFQAFHTNAEGTGARRLAAASPAPTAPETFPYETAVAKCKEKLPVEDLYYQACVFDLLTTGDVNFTLAAYYALEDVKMLHSNKDKLHLYERTRDLPG
modifications: left off: a dimerising Fc or GST
notes: RGM A Fc fusion protein used as comparison for the fragments
Turning to B4, the “binding of BMP-4” value is given as “Significant binding” in the test with BMP-4 (Working Example 1, FIG. 3, anti-BMP-4 biotin antibodies) and “Significant binding” in the test with BMP-4 (Working Example 2, FIG. 4, anti-BMP-4 biotin antibodies). The “binding of BMP-2” value with BMP-2 was “Significant binding”.

B5: #789: 266-335 Fc 257 Stop no att (Fc fusion, human, UniProt Q96B86 266-335, looked up)
RGM A fragment fused to Fc: SGQHVEIQAKYIGTTIVVRQVGRYLTFAVRMPEEVVNAVEDWDSQGLYLCLRGCPLNQQIDFQAFHTNAE
notes: fragment; also called Fragment 3
Take B5: the binding result in the test with Recombinant human BMP-4 [4] was “no binding”.
Turning to B6, the binding result with 47-168-Fc (#786) [5] was “binds”.

The term EC50 (read off the curve) denotes the concentration that produces a half-maximal response.
